For 23 molecules, EC50 of hC3 cleavage results are on record in patent US20240018502A1.

In this experiment the target is plasma purified human complement protein C3 (human) (UniProt P01024). The experiment can be described thus: cell-based or functional assay.

Positions count from the first letter of the chain named. Numbers in names are those of the source.

Chain of plasma purified human complement protein C3 (human) (P01024 23-667, chain 1 of 2): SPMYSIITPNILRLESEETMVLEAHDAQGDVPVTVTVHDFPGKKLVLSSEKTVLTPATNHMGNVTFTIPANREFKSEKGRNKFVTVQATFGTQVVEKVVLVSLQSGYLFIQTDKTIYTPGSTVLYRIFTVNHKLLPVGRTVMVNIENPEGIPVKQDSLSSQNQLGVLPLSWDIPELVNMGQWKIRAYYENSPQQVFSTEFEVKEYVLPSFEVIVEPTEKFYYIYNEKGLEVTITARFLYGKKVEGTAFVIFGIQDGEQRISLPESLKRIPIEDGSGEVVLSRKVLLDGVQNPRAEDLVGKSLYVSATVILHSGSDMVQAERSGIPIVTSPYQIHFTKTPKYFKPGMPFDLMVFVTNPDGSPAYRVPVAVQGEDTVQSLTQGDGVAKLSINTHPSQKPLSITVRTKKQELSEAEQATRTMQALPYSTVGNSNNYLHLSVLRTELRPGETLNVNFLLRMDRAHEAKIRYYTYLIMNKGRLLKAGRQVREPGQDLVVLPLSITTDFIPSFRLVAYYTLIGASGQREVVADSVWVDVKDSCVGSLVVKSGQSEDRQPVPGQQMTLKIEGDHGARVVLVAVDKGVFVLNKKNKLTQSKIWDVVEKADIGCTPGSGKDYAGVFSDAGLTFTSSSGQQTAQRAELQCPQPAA
Chain of plasma purified human complement protein C3 (human) (P01024 672-1663, chain 2 of 2): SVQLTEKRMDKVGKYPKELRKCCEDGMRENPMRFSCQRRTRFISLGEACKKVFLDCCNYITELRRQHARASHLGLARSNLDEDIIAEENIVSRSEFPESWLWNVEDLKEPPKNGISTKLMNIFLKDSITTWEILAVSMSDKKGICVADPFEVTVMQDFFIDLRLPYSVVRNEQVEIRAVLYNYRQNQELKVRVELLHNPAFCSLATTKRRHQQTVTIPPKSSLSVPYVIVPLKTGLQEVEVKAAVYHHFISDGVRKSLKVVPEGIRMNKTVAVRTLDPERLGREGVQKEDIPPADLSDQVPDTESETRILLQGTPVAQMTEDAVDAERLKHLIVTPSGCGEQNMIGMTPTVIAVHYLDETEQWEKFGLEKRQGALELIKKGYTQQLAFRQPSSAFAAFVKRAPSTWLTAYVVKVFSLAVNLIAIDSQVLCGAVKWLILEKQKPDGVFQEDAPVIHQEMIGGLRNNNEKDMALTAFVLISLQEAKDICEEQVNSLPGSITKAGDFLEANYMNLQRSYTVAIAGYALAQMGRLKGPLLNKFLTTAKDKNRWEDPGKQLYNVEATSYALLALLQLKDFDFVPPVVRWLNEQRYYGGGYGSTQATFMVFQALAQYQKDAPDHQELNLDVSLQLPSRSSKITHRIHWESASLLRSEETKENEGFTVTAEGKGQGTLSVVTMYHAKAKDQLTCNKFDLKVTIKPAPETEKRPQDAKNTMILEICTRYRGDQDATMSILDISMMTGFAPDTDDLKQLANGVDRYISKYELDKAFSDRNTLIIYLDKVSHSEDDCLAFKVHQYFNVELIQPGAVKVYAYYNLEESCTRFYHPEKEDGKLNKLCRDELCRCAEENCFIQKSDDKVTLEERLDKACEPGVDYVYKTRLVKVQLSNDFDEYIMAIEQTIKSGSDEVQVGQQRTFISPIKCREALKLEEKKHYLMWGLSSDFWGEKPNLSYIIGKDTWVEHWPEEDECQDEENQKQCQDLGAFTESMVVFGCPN

B1: MTSP-1 Q38H/I41S/D60bT/F60eS/Y60gW/ins97aV/F97D/T98P/F99L/C122S/G151H/Q175L/Q192V (enzyme)
chain: VVGGTDADEGEWPWQVSLHALGHGHSCGASLISPNWLVSAAHCYIDTRGSRWSDPTQWTAFLGLHDQSQRSAPGVQERRLKRIISHPFFNDDVPLDYDIALLELEKPAEYSSMVRPISLPDASHVFPAGKAIWVTGWGHTQYGGTHALILQKGEIRVINQTTCENLLPQLITPRMMCVGFLSGGVDSCVGDSGGPLSSVEADGRIFQAGVVSWGDGCAQRNKPGVYTRLPLFRDWIKENTGV
For B1, the EC50 of hC3 cleavage was found to be 7.43 nM.

B2: MTSP-1 Q38H/I41S/D60bT/F60eS/Y60gW/ins97aV/F97D/T98P/F99L/C122S/G151N/Q175L/Q192D (enzyme)
chain: B1 chain with H146N, V189D
For the molecule B2, the EC50 of hC3 cleavage came to 15.4 nM.

B3: MTSP-1 Q38H/I41A/D60bW/ins97aV/F97D/T98P/F99L/C122S/I136M/Q192G/D217N (enzyme)
chain: B1 chain with S26A, T47W, S50F, W52Y, I132M, H146G, L170Q, V189G, D215N
Molecule B3 registered an EC50 of hC3 cleavage of 3.06 nM.

B4: MTSP-1 I41S/D60bS/D96V/ins97aV/F97D/T98P/F99L/C122S/Q192G/F208L/D217N (enzyme)
chain: B1 chain with H23Q, T47S, S50F, W52Y, D91V, H146G, L170Q, V189G, F206L, D215N
B4 returned an EC50 of hC3 cleavage of 52.4 nM.

B5: MTSP-1 Q38H/I41S/D60bT/F60eH/Y60gF/ins97aV/F97D/T98P/F99L/C122S/H143R/G151N/Q175L/Q192S (enzyme)
chain: B1 chain with S50H, W52F, H139R, H146N, V189S
Molecule B5 returned an EC50 of hC3 cleavage of 21 nM.

B6: MTSP-1 Q38H/I41A/D60bV/F60eR/Y60gW/D96S/ins97aR/F97A/T98S/F99L/C122S/G151N/Q175L/Q192T (enzyme)
chain: B1 chain with S26A, T47V, S50R, D91S, D92A, V93R, P94S, H146N, V189T
In turn, B6 yielded an EC50 of hC3 cleavage of 2.07 nM.

B7: MTSP-1 Q38K/I41S/D60bV/ins97aV/F97D/T98P/F99L/M117T/C122S/Q145E/Q175L/Q192G (enzyme)
chain: B1 chain with H23K, T47V, S50F, W52Y, M113T, Q141E, H146G, V189G
B7 returned an EC50 of hC3 cleavage of 11.8 nM.

B8: MTSP-1 Q38H/I41S/D60bT/F93L/ins97aV/F97D/T98P/F99L/S115N/C122S/Q192V/F208L/D217Q (enzyme)
chain: B1 chain with S50F, W52Y, F88L, S111N, H146G, L170Q, F206L, D215Q
As to B8, the EC50 of hC3 cleavage worked out at 45.8 nM.

B9: MTSP-1 Q38H/I41S/D60bT/F60eS/Y60gW/ins97aV/F97D/T98P/F99L/C122S/G151N/Q175A/Q192D (enzyme)
chain: B1 chain with H146N, L170A, V189D
As for B9, the EC50 of hC3 cleavage is 22.5 nM.

B10: MTSP-1 Q38H/I41A/D60bV/F60eI/Y60gW/ins97aE/F97T/T98G/F99L/C122S/G151H/Q175L/Q192D (enzyme)
chain: B1 chain with S26A, T47V, S50I, D92T, V93E, P94G, V189D
With B10, the EC50 of hC3 cleavage was 6.42 nM.

B11: MTSP-1 Q38H/I41A/D60bV/F60eR/Y60gW/D96I/ins97aN/F97Y/T98G/F99L/C122S/G151N/Q175L/Q192D (enzyme)
chain: B1 chain with S26A, T47V, S50R, D91I, D92Y, V93N, P94G, H146N, V189D
The molecule B11 showed an EC50 of hC3 cleavage of 2.23 nM.

B12: MTSP-1 Q38H/I41A/D60bV/F60eR/Y60gW/D96Y/ins97aI/F97E/T98N/F99M/C122S/G151N/Q175L/Q192V (enzyme)
chain: B1 chain with S26A, T47V, S50R, D91Y, D92E, V93I, P94N, L95M, H146N
In turn, B12 displayed an EC50 of hC3 cleavage of 4.36 nM.

B13: MTSP-1 Q38H/I41S/D60bT/ins97aV/F97D/T98P/F99L/C122S/I136V/Q192G/D217S (enzyme)
chain: B1 chain with S50F, W52Y, I132V, H146G, L170Q, V189G, D215S
For B13, the EC50 of hC3 cleavage is 22.2 nM.

B14: MTSP-1 Q38H/I41A/D60bT/F60eK/Y60gW/ins97aE/F97T/T98G/F99L/C122S/G151H/Q175L/Q192D (enzyme)
chain: B1 chain with S26A, S50K, D92T, V93E, P94G, V189D
B14 gave an EC50 of hC3 cleavage of 10.6 nM.

B15: MTSP-1 Q38H/I41A/D60bV/F60eR/Y60gW/D96P/ins97aN/F97W/T98G/F99L/C122S/G151N/Q175L/Q192E (enzyme)
chain: B1 chain with S26A, T47V, S50R, D91P, D92W, V93N, P94G, H146N, V189E
B15: the EC50 of hC3 cleavage is 1.51 nM.

B16: MTSP-1 Q38H/I41T/D60bV/F60eR/Y60gW/D96I/ins97aN/F97Y/T98G/F99L/C122S/G151N/Q175L/Q192D (enzyme)
chain: B1 chain with S26T, T47V, S50R, D91I, D92Y, V93N, P94G, H146N, V189D
B16 gave an EC50 of hC3 cleavage of 9.75 nM.

B17: MTSP-1 Q38H/I41S/D60bF/F60eQ/Y60gF/ins97aV/F97D/T98P/F99L/C122S/H143A/G151N/Q175L/Q192A (enzyme)
chain: B1 chain with T47F, S50Q, W52F, H139A, H146N, V189A
Take B17: the EC50 of hC3 cleavage is 4.58 nM.

B18: MTSP-1 Q38H/I41S/L52M/D60bG/ins97aV/F97D/T98P/F99L/M117K/C122S/I136L/Q192G/D217A (enzyme)
chain: B1 chain with L37M, T47G, S50F, W52Y, M113K, I132L, H146G, L170Q, V189G, D215A
In the case of B18, the EC50 of hC3 cleavage turned out to be 22 nM.

B19: MTSP-1 Q38H/I41T/D60bH/ins97aV/F97D/T98P/F99L/C122S/I136F/L153P/Q192G/D217Y (enzyme)
chain: B1 chain with S26T, T47H, S50F, W52Y, I132F, H146G, L148P, L170Q, V189G, D215Y
In turn, B19 gave an EC50 of hC3 cleavage of 25.5 nM.

B20: MTSP-1 Q38H/I41S/D60bS/ins97aV/F97D/T98P/F99L/C122S/I136V/Q192G/D217V (enzyme)
chain: B1 chain with T47S, S50F, W52Y, I132V, H146G, L170Q, V189G, D215V
Molecule B20 showed an EC50 of hC3 cleavage of 7.05 nM.

B21: MTSP-1 Q38H/I41S/D60bG/ins97aV/F97D/T98P/F99L/M117T/C122S/N164D/Q192G/D217E (enzyme)
chain: B1 chain with T47G, S50F, W52Y, M113T, H146G, N159D, L170Q, V189G, D215E
Molecule B21 displayed an EC50 of hC3 cleavage of 10.3 nM.

B22: MTSP-1 Q38R/I41T/D60bT/ins97aV/F97D/T98P/F99L/C122S/I136V/Q192G/D217N/L233Q (enzyme)
chain: B1 chain with H23R, S26T, S50F, W52Y, I132V, H146G, L170Q, V189G, D215N, L231Q
As for B22, the EC50 of hC3 cleavage came out at 39.8 nM.

B23: MTSP-1 Q38H/I41S/D60bS/F93L/D96Y/ins97aV/F97D/T98P/F99L/C122S/I136F/Q192G/D217V (enzyme)
chain: B1 chain with T47S, S50F, W52Y, F88L, D91Y, I132F, H146G, L170Q, V189G, D215V
B23 yielded an EC50 of hC3 cleavage of 9.56 nM.
